# Reference: article PMC10329633, “Molecular basis and design principles of switchable front-rear polarity and directional migration in Myxococcus xanthus” (Nature Communications, 2023)
# “And” between values parts separate entries of the source, which are not always exact repeats. Identical values can stand only once.
# T1: MglA-His6 (Myxococcus xanthus, UniProt Q1DB04 1-195)
# T1 construct: MglA, small GTPase of Myxococcus xanthus; Preloaded with GTP, GppNHp or GDP (40 µM) according to the experiment; the nucleotide is named in the assay's format; also called MglA-GTP; source: E. coli Rosetta 2(DE3), purified (Ni-NTA, Superdex 75 gel filtration); not shown: His6, C-terminal, kept
# T1 sequence: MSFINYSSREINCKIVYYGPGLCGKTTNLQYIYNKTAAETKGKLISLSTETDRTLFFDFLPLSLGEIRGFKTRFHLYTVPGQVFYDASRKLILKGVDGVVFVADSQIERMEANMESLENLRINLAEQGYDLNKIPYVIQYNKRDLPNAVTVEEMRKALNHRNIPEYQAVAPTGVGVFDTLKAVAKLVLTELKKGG
# Legend:
# [1] = biological target: MalE-MglC (Myxococcus xanthus); test: mass photometry; single proteins in solution, diluted into phosphate-buffered saline; MalE-RomR and MalE-RomR^C at 25 nM and 50 nM
# [2] = biological target: MalE-MglC (Myxococcus xanthus); test: mass photometry; mixtures of MalE-MglC with MalE-RomR or MalE-RomR^C in solution, diluted into phosphate-buffered saline
# [3] = biological target: MalE-RomR^C (Myxococcus xanthus); test: mass photometry; single proteins in solution, diluted into phosphate-buffered saline; MalE-RomR and MalE-RomR^C at 25 nM and 50 nM
# [4] = biological target: MalE-RomR (Myxococcus xanthus); test: as above
# MglA-His6 = biological target: T1, MglA-His6; test: pull-down; Strep-MglC as bait on Strep-Tactin beads; 40 µM GppNHp in all buffers; without or with MglA-His6 preincubated with GppNHp; proteins 10 µM; MglB detected by immunoblot with α-MglB; details: both partners purified
molecule,measurement,setting,value
MalE-MglC (natural protein),stoichiometry N,[1],2
MalE-RomR^C (domain or fragment),stoichiometry N (RomR^C per MglC (printed as 2:2)),[2],1
same,stoichiometry N (RomR^C per MglC (printed as 3:2)),[2],1.5
same,stoichiometry N,[3],2 and 3
MalE-RomR (natural protein),stoichiometry N (RomR per MglC (printed as 2:2)),[2],1
same,stoichiometry N (RomR per MglC (printed as 3:2)),[2],1.5
same,stoichiometry N,[4],2 and 3
"His6-MglB (natural protein, Myxococcus xanthus, also called MglB-His6; MglB^WT; source: E. coli Rosetta 2(DE3), purified (Ni-NTA, Superdex 75 gel filtration); not shown: His6, N-terminal, kept) MGTQLVMYEEEFTKINAVCDRLTKDANAKVVFLVDKNGQLISSAGQTQNIDTTSLASLTAGNVAAMGGLAKLIGENEFPNQFHEGAKDSLYMTIVGSRVVLVVIFDNRTSLGLVRLRIKKASDELTKIFESLVKKTDSPGAGSPFAEISDDDIDNLFSE",binding result,MglA-His6,binds
